Assay results from the DeepSol protein solubility set.

Assay: soluble on expression in E. coli; label from the status in PepcDB or PDB records

Sequence	soluble on expression in E. coli
GPHMGGSMFSWLKKGGARGQRPEAIRTVTSSLKELYRTKLLPLEEHYRFGSFHSPALEDADFDGKPMVLVAGQYSTGKTSFIQYLLEQEVPGSRVGPEPTTDCFVAVMHGETEGTVPGNALVVDPEKPFRKLNPFGNTFLNRFMCAQLPNQVLESISIIDTPGILSGAKQRVSRGYDFPAVLRWFAERVDLIILLFDAHKLEISDEFSEAIGALRGHEDKIRVVLNKADMVETQQLMRVYGALMWALGKVVGTPEVLRVYIGSFWSQPLLVPDNRRLFELEEQDLFRDIQGLPRHAALRKLNDLVKRARLVRVHAYIISYLKKEMPTVFGKENKKKQLILKLPVIFAKIQLEHHISPGDFPDCQKMQELLMAHDFTKFHSLKPKLLEALDDMLAQDIAKLMPLLRQEELESVEAGVAGGAFEGTRMGPFVERGPDEAIEDGEEGSEDDAEWVVTKDKSKYDEIFYNLAPADGKLSGSKAKTWMVGTKLPNSVLGRIWKLSDVDRDGMLDDEEFALASHLIEAKLEGHGLPTNLPRRLVPPSKRRQKGSAE	soluble
MNTSTSAFDFGSSTASSAATSTTSSQPDANDHLSRLAAMTQGVGKEDPETSSTPSTEASLYPGISAAYMQSYGWPQNYNYFGQPLGPATFPGWPQCYPNTAWPNYGELFASSKKGRQTYQRYQTSVLEAKFQQSSYVSKKQREELRLQTQLTDRQIKIWFQNRRMKAKKEKQRVDDHTEHTPLLPANPPKGMGMDMDDEKKWQMAHWPPAAAHNPYQYPLCPP	soluble
MGSDKIHHHHHHMRKDEIMHIVSCADDNYARHLGGMFVSLLTNMDQEREVKLYVIDGGIKPDNKKRLEETTLKFGVPIEFLEVDTNMYEHAVESSHITKAAYYRISIPDLIKDESIKRMIYIDCDALVLEDISKLWDLDIAPYTVAAVEDAGQHERLKEMNVTDTGKYFNSGIMIIDFESWRKQNITEKVINFINEHPDEDFLVLHDQDALNAILYDQWYELHPRWNAQTYIMLKLKTPSTLLGRKQYNETRENPAIVHFCGGEKPWNSNTKHPYRDEYFHYMSYTKWNTIGNPAINQ	not soluble
MTRQSLQQAAESRRSIYSLNKNLPVGKDEVVQIVEHAVLHTPSSFNSQSARVVVLFGEEHDKVWQFVEDALRAVVPADSFEPTAQKLNLFKAGAATILFYEDQNVVKGLQEQFPAYAANFPVWADQANAMVQYAVWTTLAAVGVGANLQHYNPLPDAAIAKAWNIPENWLLRAQMVIGGIEGAAGEKTFEPVAERLKVFGA	not soluble
MKTTLLSAVLASTLLVCAPATVLAQPATSSAPAAQGAATKTVIDSSTRILSTLDQRRAEFRGNPAALRQYINGELNKAFDRDYSARLVLGVHGRGASDADVKLFADALAENLMQRYGTALLNFEGKPTFRAKSESALPGNRGVKVSTDLLRAGNDPTPVDYLMRNSGGQWKIFDVMIEGISYVQTFKTQFDGPLREKGIAKVAADLRSGNLQVGATPANGQLEHHHHHH	soluble
MHHLILGYGYCGYYLAQELLGHHQQVTVVSRQLKKELELSKLQHISHDLEYPFHWSEPDSIIYYLIPPPSQGTCDTFLQQFLNQSSLNAKKIIYFGSSGVYGNHQGAWVDELSACIIDSPRQQRRLDAEQQWLAYCQQHNKELSLLRIAGIYGPNRIPADAAKSKIPIIKPTEAPFTNHIFVKDLALIAYLLGQKQTTSAVYNVADGNPTHMGELQQTVANALGIESASYESFEQAWEKASPMKREFMRASKRLKIDLLKTALGEDIQFTSLYDAVKQSL	not soluble
MGSDKIHHHHHHMIDLHCHTTASDGVVTPSNVIRQASRKGIAVLAIADHDTVNGLDEAAGAAEKEGICLIPAIELSVAFPKGDFHLLGYGIQYKNENFRNKLAQLRTIREERIFRIIERLKRYGLNLTHEDLQNESQGDAPGKAHVARVLVRKRYASNFNVACKTYLNEGMPGYVPKEKLSLESACELINNAGGLSVLAHPKSLNGENHEEYERIIQMCVSHGLAGIEVYASLHDNQDVRLFLELARRHRLIATGGSDFHGDNGACLGYYGHRRPVPESCSQPLLQKISQNKT	not soluble
MGSDKIHHHHHHMVKYMKIVGITDLHGKLPPAVREFKDFADVLVVCGDITHFGKGIEVIEKLAELSDYMEVLCVPGNCDTKEVIDELNSFKLNIDRKVKKIENINFVGIGGSNKTPFNTPNEYTEEEIYNKLINVVKNLKNIFLVSHAPPYNTMADIVDLDKDIHVGSKSIRKIIEDFNENIRFCACGHIHESRCIDKIGNTIVVNPSPKSYFVYDTKKNMVVLDDFNGF	not soluble
SLGELPPAPSDSKRTVFLDIDETLVHVTPYPLPFVKPDATFLLQEHRRPSDPPGVSPEYLPGVSAGAAPRAALLHVYYRPFLMPFLENLLQTNRCELVAFTAALREYADPILDGIETKLGGARGSVFAARLYRQHCARAPRSKDLVHAAPSRCLSRCVLLDNSVVSLAAQLANGLLLRPFYGDPQDRELEGVLAFLLDLLEKTGDIRESMKESGMLHKVT	soluble
MGSDKIHHHHHHMKCSQCNKKLCYTGKDCKKDITQKIIEEYKKEENLKIAEVSAYIEATYYMKKTRLEEIIEFCKLMEYKKIGIAFCIGLENEAKILAKILSKHFEVYSVCCKVCGIDKDVFKFKKINKGEKEAMCNPIGQAEILNEIGTDLNIIVGLCIGHDILFQKYSKAPTTTFIVKDRVLSHNTAGAIYTKYYLKKLLEGK	not soluble
MGSDKIHHHHHHMRYSPEALIAFVETVSCGSFSAAARRLRKSQSTISIAIAHLEADLGFSLFDRSSRQPVLTEEGKRVLSYVQAILSASDRLDEVALTLSGETEARLTFVLSDTLHPDSLEELMAQFDRQFPHTEFECLIGENDDVIDLLQKGRAQIGLIEARDDYPTDIGAARLPVQSWMGVYVATTHPLASQTNLQWEQLHTWRELRLNTYLDSNANITRGPAWSAPNYLLLLSMAVQGFGWCVLPCALVEEFAAEKPLAQLDVPGWPRAIAIDLLWNKKTPPGTAGNWLRYHLQQK	not soluble
MLLDKLSRPLKVLRISLTDRCNLRCNFCMPPGKEYNFLPKRQLLTPEEIEEYVKIFAKLGVEKVRLTGGEPLLREDLEEIIQRISKVEGIKDIALTTNGVFLKERLKALKEAGLKRITVSVHSLNPEKNQKLVNRSVNLGEVFEVIIRAKELGFKVKVNSVIIKGFNDDEILDLARFFKNLGVTLRFIEYMDVGTVNDWDFSKVVSADEILNLMKKEFTFYPLPKRPEDTSMDFIYEDGNKFGIIASVTKPFCRGCNRIRLSADGKLYTCLFSDKGHDLRNAVDKENFIKEVWKDRKDRYSELRRQMKRERKVEMFKVGGMGHHHHHHSH	soluble
QVRQSPQSLTVWEGETTILNCSYEDSTFDYFPWYRQFPGKSPALLIAISLVSNKKEDGRFTIFFNKREKKLSLHITDSQPGDSATYFCAATGSFNKLTFGAGTRLAVSPY	soluble
MIVDMRLRPPIPGFARSTLYQAGPKTSHPDFPVEPSVGQCSLPLLISEMDAAGVAVGVVPGRYSMEPFGIVSNDELATLFADHPGRFVGFMGLDLGWPMQRMLDEIDARVGTPGFRGVALEPTISADASFCGMNDKRLYPIYEACVKHGVPVSVTLSAVLQAFTKRPYEHSNPVQAYQVAIDFPGLDIVIAHAAYPWVMEMIGVCLTCPNVWLSPDLYLTNVFPGAQEYAKAAATYLPRRTLFGTGYPAKPFKPMIDAYAAWGWPQDVVAAILGGNAARLLRLADQLEHHHHHH	not soluble
MGHHHHHHSHMVTHSKFPAAGMSRPLDTSLRLKTFSSKSEYQLVVNAVRKLQESGFYWSAVTGGEANLLLSAEPAGTFLIRDSSDQRHFFALSVKTQSGTKNLRIQCEGGSFSLQSDPRSTQPVPRFDCVLKLVYHYMPPPGAPSFPSPPTEPSSEVPEQPSAQPLPGSPPRRAYYIYSGGEKIPLVLSRPLSSNVATLQHLCRKTVNGHLDSYEKVTQLPGPIREFLDQYDAPL	not soluble
MKKRVHILIMTLMLIVACVGCSGSSDNPPPANSLHSASTIPISAMPSFSTPSPTVEDTENQQSKTVNYLINSMTLEEKIGQIFIVAFRKGKSSRPLKVLDNSTKLKIQNFNPGGIILFSENIDTIPQTQKLIRDMQEASKIPMFIAVDEEGGRIARIGNNPKMHSTKIPSAQTIGLADDPELAYEAGRILGAELSALGFNMNFAPVADVNTNPDNPVIGDRSFGSDPYKVGLMVQAMSKGMQEQNVCTVLKHFPGHGDTSYDSHLGQVVINHDIERLRQIELTPFKMGIKAGADGVMTAHIIMPNITGSNLPATLSEEILSGLLRNELKHEKLIITDAMEMKAISNYWSSSKAAVMAFKAGADIILMPESFEEAYNGILKAVKDGEITEERLNQSLQRILALKFERNILANKESSVDPEKVLGRQEHTDIVVKIMQKAEEQNIP	not soluble
MEEVEEFKYEPKSVKEIFIEMKDTVELMVDLAYASLLFGDKEIAEEVLELEERIDLLNYQLMMHSVLAARNVKEAEQVITILQIANAIEDISNAAGDLAKMVLEGVELHPVIKETILEGEEIIGKIQVYPESVIVGKTLGELDLATNTGVWIIAVRRGKRWIFGPNENFKIRAGDVLIGRGTRTSIDHLKEIARGAIRVIGNERA	soluble
MSLSQDGLLGEVLSEGVLTLTLGRAPAHPLSRAMIAALHDALRRAMGDDHVHVLVIHGPGRIFCAGHDLKEIGRHRADPDEGRAFVTDLFEACSALMLDLAHCPKPTIALVEGIATAAGLQLMAACDLAYASPAARFCLPGVQNGGFCTTPAVAVSRVIGRRAVTEMALTGATYDADWALAAGLINRILPEAALATHVADLAGALAARNQAPLRRGLETLNRHLELPLEQAYALATPVMVEHFMDPGRRHLDWIDEGHHHHHH	soluble
ATDKRLLGNTAIIGQSGSGKTVLLGFLLAQAQKFKPTTVVFDKDRGMEIAIRAMGGRYLTFKPGRQSGFNPFQLPPTQDNLTFLKQFVKKLAEASSEITHRDEEEINQAVMSIMSSNINPSLRRLSFLLQFLPNPHLNDYNSHPSVHTRLIKWCEGGDYGWLFDNPTDALDLSTHQIYGFDITEFLDNPETRTPVMMYLLYRTEGMISGQRFMYIFDEFWKPLQDPYFEDLAKNKQKTIRKQNGIFVFATQEPTDALESNIAKTLIQQCATYIFLA	not soluble
MSTFFRQTAQAMIAKHINRFPLLKLDQVIDWQPIEQYLNRQKTRYLRDHRGRPAYPLLSMFKAVLLGQWHSLSDPELEHSLITRIDFNLFCRFDELSIPDYSTLCRYRNWLAQDDTLSELLELINCQLTEKGLKVEKASAAVIDATIIQTAGSEQRQAIEVDEEGQISGQTTPSKDSDARWIKKNGLYKLGYKQHTRTDAEGYIEKLHITPANAHECKHLSPLLEGLPEGTTVYADKGYDSAENRQHLEEHQLLDGIMSKACRNRPLSEVQTKRNRYLSKTRYSGLNLNQDKATKPQTVQIVRQGEATPYWFKFNPLYVVEQSFGTLHRKFRYARAAYFGLIKVSAQSHLKAMCLNLLKAANRLSAPAAA	not soluble
MKRKESAFKSMLKQAAPPIELDAVWEDIRERFVKEPAFEDITLESERKRIFKDFMHVLEHECQH	soluble
MTPFKELQKFIHWKERFLRDYEKIEKGELEKIREEVKEMLGEEPDERLLKALRSMYVGGMEHRVEDEEIRYWTNWGGVKTYETFNRFPLLSDIELAFVFWALGKLFVPLLMHETGVKSEPFKKLSREEQEEAVLDELDTLWETQLTLILQALQFLDLKSISSEKPSSEG	not soluble
MAEKMQAIMKTKPAYGAELVEVDVPKPGPGEVLIKVLATSICGTDLHIYEWNEWAQSRIKPPQIMGHEVAGEVVEVGPGVEDLQVGDYISVETHIVCGKCYACKHNRYHVCQNTKIFGVDMDGVFAHYAIVPAKNAWKNPKDMPPEYAALQEPLGNAVDTVLAGPIAGRSTLITGAGPLGLLGIAVAKASGAYPVIVSEPSEFRRKLAKKVGADYVVNPFEEDPVKFVMDITDGAGVEVFLEFSGAPKALEQGLKAVTPGGRVSLLGLFPREVTIDFNNLIIFKALEVHGITGRHLWETWYTVSSLIQSGKLNLDPIITHKYKGFDKFEEAFELMRAGKTGKVVFFPHKG	soluble
